In patent publication US9176064B2, “Bisubstrate fluorescent probes for protein kinase CK2” (University of Tartu, priority 2012, dated 2015):
Where a SMILES comes first, the peptide text is derived from it. [ ]: non-standard residue; d: D form. The star is where a group is joined. X1 = O=C(CCCCCCCn1cnc2c(Br)c(Br)c(Br)c(Br)c21)*

Columns and labels:
Assay in all cases: Kinase panel residual activity
Format in all cases: biochemical
Conditions in all cases: compound at 1 micromolar
p38a MAPK = p38a MAPK (Homo sapiens, UniProt Q16539)
MST4 = MST4 (Homo sapiens, UniProt Q9P289)
IKKe = target: T1, IKKe (Homo sapiens, UniProt Q14164)
T1 sequence (Q14164 1-716): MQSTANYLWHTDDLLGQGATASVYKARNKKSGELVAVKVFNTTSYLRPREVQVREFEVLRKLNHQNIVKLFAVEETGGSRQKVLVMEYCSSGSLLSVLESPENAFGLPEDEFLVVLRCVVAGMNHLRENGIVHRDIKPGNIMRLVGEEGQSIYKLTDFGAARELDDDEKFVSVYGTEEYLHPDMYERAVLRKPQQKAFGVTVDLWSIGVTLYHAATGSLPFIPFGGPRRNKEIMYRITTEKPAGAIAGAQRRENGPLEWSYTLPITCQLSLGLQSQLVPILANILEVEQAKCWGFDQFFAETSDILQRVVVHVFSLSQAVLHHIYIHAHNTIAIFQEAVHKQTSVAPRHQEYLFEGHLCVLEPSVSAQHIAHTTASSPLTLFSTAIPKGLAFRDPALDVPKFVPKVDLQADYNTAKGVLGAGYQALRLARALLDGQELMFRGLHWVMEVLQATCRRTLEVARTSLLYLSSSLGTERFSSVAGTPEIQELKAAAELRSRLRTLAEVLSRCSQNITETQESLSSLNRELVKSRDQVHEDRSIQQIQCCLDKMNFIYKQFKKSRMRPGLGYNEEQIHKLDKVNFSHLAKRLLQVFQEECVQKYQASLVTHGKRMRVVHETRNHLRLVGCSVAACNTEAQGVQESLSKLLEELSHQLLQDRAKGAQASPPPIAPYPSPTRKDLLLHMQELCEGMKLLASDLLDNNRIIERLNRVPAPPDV

TLK1 = target: T2, TLK1 (Homo sapiens, UniProt Q9UKI8)
T2 sequence (Q9UKI8 1-766): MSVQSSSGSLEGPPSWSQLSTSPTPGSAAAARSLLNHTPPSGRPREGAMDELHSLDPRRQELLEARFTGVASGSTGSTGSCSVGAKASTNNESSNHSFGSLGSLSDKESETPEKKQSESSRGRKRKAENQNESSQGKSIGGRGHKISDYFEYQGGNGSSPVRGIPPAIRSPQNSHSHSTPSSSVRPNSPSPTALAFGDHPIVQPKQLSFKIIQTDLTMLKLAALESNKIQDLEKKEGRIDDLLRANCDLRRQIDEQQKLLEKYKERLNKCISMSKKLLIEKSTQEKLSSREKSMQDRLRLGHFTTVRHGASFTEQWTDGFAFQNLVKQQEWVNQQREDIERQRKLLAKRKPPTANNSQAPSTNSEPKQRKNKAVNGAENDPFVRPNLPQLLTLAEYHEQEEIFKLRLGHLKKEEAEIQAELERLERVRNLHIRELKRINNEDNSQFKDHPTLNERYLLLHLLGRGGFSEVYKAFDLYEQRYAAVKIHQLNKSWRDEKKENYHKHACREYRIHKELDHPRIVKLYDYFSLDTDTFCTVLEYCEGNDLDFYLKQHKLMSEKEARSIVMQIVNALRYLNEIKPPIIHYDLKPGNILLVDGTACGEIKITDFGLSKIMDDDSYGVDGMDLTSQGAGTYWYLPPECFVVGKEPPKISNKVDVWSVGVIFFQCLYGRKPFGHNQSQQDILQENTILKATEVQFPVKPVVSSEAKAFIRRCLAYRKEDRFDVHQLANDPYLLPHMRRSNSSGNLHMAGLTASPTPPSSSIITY

ERK2 = ERK2 (Homo sapiens, UniProt P28482)
FGF-R1 = FGF-R1 (Homo sapiens, UniProt P11362)
ERK1 = ERK1 (Homo sapiens, UniProt P27361)
MPSK1 = MPSK1 (Homo sapiens, UniProt O75716)
IR = IR (Homo sapiens, UniProt P06213)
TGFBR1 = target: T3, TGFBR1 (Homo sapiens, UniProt P36897)
T3 sequence (P36897 34-503): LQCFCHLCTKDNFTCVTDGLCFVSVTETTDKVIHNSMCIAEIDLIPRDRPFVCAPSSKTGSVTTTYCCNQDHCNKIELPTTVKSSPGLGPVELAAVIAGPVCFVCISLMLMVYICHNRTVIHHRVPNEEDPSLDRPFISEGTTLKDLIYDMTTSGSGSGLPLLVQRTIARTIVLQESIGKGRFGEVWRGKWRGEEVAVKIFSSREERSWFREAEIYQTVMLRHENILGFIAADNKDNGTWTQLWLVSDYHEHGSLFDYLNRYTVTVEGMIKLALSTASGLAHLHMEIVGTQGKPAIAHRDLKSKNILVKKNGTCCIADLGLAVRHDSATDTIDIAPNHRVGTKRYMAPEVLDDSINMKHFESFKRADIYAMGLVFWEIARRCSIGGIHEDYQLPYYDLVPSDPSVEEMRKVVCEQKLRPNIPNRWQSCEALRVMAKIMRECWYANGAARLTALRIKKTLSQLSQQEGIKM

PDGFRA = PDGFRA (Homo sapiens, UniProt P16234)
PKBa = PKBa (Homo sapiens, UniProt P31749)
CDK9-Cyclin T1 = CDK9-Cyclin T1 (Homo sapiens, UniProt P50750)
GSK3b = GSK3b (Homo sapiens, UniProt P49841)
EPH-A2 = EPH-A2 (Homo sapiens, UniProt P29317)

Chain of ERK1 (P27361 whole entry, species assumed): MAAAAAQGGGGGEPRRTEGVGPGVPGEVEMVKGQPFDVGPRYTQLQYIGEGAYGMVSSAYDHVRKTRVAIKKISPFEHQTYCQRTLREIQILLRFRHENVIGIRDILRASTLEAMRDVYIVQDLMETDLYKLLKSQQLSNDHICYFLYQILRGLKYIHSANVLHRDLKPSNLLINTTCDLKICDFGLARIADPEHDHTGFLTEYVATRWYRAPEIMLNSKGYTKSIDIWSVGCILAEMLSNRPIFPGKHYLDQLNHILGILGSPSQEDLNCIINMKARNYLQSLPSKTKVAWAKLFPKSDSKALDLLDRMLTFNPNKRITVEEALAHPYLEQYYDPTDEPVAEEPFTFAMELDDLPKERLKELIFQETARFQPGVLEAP
Chain of MST4 (Q9P289 whole entry, species assumed): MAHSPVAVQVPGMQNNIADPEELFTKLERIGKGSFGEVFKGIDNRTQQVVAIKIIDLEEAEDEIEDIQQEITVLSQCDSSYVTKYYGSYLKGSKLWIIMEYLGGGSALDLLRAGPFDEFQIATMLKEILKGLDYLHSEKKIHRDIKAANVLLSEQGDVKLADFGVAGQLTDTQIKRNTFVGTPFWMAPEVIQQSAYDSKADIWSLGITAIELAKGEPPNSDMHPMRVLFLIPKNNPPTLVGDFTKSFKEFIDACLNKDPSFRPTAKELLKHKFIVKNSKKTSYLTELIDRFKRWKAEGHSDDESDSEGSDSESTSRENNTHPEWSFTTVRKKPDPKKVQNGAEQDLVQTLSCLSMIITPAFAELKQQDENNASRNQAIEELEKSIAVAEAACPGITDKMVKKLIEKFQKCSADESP
Chain of ERK2 (P28482 whole entry, species assumed): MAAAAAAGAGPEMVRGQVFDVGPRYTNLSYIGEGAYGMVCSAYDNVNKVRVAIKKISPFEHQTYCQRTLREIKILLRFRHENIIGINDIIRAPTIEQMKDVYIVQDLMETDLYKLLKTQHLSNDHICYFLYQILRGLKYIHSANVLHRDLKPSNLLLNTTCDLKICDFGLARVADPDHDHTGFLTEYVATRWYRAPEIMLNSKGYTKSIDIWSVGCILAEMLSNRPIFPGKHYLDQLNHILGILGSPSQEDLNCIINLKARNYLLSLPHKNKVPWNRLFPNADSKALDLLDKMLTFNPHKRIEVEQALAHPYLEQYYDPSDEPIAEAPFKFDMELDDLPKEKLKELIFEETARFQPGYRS
Chain of p38a MAPK (Q16539 whole entry): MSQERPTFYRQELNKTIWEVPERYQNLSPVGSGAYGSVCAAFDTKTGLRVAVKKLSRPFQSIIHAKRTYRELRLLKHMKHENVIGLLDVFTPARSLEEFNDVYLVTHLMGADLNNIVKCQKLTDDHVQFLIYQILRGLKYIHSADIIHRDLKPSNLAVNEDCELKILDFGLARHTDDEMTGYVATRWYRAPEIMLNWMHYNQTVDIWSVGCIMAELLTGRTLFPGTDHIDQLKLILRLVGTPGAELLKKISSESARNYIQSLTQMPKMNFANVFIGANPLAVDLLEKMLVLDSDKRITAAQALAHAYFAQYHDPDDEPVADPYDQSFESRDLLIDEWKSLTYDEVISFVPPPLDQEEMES
Chain of IR (P06213 28-1382): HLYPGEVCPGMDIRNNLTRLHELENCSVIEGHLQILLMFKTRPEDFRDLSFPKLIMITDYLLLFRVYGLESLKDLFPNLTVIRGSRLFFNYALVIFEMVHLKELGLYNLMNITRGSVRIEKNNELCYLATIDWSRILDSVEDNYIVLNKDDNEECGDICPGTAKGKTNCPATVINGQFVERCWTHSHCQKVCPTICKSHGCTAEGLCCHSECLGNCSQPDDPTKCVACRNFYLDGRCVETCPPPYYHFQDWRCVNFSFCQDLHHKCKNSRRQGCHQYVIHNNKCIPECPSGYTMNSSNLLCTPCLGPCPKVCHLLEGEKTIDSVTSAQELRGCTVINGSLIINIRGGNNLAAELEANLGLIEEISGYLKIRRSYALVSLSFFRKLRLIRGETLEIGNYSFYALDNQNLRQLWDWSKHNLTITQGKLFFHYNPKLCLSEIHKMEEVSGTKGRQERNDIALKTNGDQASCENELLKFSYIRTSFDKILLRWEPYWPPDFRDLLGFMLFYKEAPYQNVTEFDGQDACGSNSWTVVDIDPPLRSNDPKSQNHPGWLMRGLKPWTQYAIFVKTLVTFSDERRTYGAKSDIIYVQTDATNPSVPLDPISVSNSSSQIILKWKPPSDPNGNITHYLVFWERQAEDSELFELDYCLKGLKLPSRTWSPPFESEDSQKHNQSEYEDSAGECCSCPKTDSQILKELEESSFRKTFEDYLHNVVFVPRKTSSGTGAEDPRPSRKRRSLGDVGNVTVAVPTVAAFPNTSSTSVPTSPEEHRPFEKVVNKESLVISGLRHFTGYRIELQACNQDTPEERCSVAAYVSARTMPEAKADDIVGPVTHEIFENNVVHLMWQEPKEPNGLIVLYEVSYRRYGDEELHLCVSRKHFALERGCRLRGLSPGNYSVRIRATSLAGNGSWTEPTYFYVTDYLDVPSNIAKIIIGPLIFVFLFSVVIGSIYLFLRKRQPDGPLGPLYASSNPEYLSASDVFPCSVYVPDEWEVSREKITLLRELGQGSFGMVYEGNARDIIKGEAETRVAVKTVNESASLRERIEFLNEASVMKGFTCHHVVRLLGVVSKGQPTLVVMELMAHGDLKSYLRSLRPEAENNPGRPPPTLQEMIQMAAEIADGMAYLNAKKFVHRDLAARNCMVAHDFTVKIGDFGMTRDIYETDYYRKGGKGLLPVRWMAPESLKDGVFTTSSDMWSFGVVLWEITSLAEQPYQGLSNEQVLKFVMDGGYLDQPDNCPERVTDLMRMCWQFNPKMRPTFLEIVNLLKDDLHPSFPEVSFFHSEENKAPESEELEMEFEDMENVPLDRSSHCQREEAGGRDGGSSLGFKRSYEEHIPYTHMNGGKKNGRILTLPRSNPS
Chain of FGF-R1 (P11362 22-822, species assumed): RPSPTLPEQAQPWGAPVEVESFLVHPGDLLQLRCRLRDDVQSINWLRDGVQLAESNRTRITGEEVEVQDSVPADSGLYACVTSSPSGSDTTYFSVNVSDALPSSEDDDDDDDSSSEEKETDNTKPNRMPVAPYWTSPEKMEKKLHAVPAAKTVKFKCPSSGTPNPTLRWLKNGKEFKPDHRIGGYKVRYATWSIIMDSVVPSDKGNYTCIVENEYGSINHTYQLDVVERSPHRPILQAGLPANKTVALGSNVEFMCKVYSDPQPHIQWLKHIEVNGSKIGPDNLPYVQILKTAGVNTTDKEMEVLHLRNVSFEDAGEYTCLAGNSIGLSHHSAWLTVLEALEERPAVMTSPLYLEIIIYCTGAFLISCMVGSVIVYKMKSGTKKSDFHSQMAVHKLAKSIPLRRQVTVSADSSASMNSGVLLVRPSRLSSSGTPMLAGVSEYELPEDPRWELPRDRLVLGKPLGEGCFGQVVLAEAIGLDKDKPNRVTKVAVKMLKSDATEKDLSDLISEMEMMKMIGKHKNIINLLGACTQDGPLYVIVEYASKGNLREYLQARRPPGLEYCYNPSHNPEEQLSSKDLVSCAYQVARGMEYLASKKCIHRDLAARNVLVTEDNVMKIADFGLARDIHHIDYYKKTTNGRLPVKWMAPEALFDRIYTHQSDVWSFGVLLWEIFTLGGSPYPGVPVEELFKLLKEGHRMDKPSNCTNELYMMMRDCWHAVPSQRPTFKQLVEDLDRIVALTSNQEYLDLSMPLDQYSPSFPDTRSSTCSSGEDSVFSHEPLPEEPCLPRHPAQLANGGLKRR
Chain of PKBa (P31749 whole entry): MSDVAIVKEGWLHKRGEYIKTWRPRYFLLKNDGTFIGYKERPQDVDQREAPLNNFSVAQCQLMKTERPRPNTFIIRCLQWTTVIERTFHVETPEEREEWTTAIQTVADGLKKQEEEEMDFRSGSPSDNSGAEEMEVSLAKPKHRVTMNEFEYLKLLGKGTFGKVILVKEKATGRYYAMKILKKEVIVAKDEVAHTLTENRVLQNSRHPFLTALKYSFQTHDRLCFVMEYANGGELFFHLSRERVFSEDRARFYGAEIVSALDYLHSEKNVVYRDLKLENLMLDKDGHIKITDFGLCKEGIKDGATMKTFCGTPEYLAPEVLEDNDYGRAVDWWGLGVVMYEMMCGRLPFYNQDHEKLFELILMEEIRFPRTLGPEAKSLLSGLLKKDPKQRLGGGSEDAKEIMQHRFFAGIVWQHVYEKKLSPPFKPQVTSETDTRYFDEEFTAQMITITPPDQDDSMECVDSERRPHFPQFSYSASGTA
Chain of MPSK1 (O75716 whole entry, species assumed): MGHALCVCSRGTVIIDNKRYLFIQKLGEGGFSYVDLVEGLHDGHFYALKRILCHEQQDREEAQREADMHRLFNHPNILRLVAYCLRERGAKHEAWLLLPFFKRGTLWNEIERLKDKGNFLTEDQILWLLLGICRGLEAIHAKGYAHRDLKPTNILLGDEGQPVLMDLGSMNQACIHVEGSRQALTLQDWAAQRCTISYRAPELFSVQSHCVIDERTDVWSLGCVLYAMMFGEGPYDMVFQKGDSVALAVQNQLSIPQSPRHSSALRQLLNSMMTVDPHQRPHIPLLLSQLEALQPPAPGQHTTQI
Chain of GSK3b (P49841 whole entry, species assumed): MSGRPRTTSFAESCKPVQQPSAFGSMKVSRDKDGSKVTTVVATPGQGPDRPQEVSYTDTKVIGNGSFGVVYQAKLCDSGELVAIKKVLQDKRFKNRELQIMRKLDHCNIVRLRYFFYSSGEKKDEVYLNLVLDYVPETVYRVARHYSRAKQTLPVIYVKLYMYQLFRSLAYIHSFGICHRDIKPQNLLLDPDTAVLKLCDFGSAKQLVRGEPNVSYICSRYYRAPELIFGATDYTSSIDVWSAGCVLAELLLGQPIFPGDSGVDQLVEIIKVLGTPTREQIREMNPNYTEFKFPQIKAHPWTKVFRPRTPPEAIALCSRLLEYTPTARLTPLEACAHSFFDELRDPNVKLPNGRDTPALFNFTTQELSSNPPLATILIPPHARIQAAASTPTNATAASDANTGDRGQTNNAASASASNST

NCCCC[C@H](NC(=O)[C@H](CC(=O)O)NC(=O)[C@H](CC(=O)O)NC(=O)[C@H](CC(=O)O)NC(=O)[C@H](CC(=O)O)NC(=O)[C@H](CC(=O)O)NC(=O)[C@@H](CC(=O)O)NC(=O)CCCCCCCn1cnc2c(Br)c(Br)c(Br)c(Br)c21)C(=O)O [TBBI-OcA-(D-Asp)-(L-Asp)5-(L-Lys)-OH] (X1-[dD]DDDDDK-OH)
remaining activity at 1 µM (p38a MAPK): 116% | remaining activity at 1 µM (MST4): 114% | remaining activity at 1 µM (IKKe): 84% | remaining activity at 1 µM (TLK1): 107% | remaining activity at 1 µM (ERK2): 92% | remaining activity at 1 µM (FGF-R1): 110% | remaining activity at 1 µM (ERK1): 110% | remaining activity at 1 µM (MPSK1): 96% | remaining activity at 1 µM (IR): 70% | remaining activity at 1 µM (TGFBR1): 98% | remaining activity at 1 µM (PDGFRA): 77% | remaining activity at 1 µM (PKBa): 73% | remaining activity at 1 µM (CDK9-Cyclin T1): 65% | remaining activity at 1 µM (GSK3b): 46% | remaining activity at 1 µM (EPH-A2): 80%
